From publication PMC9157081

T1: His-E1 (Glycine max, UniProt I2FKG6 1-174)
T1 sequence: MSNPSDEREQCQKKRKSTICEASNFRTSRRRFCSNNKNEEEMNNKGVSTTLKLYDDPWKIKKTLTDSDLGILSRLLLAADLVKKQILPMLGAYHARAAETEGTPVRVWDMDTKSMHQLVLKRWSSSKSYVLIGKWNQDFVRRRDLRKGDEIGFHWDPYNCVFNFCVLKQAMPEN

B1: GmMDE06 Probe2 (dsDNA)
DNA 1: GAATCAAGGGGTGAGACTCACGGTCATGACTCATGTAAATTCGTCTCCCA
DNA 2: TGGGAGACGAATTTACATGAGTCATGACCGTGAGTCTCACCCCTTGATTC
B2: GmMDE06 Probe1 (dsDNA)
DNA 1: TAAAGTATAAGTTTACTAATGGAGTCCATGAGTTAAATTTATAAAACTCT
DNA 2: AGAGTTTTATAAATTTAACTCATGGACTCCATTAGTAAACTTATACTTTA
B3: Probe3 (dsDNA)
DNA 1: AGTTGATCAGCCCGAAATACTGCATGCACCTCACAAATTGACAAGTGCTT
DNA 2: AAGCACTTGTCAATTTGTGAGGTGCATGCAGTATTTCGGGCTGATCAACT
B4: Probe4 (dsDNA)
DNA 1: AGTCTTTGTTCTTACATGAGAAACACATGTATTTTTTTTATAGACATTAT
DNA 2: ATAATGTCTATAAAAAAAATACATGTGTTTCTCATGTAAGAACAAAGACT
B5: GsWRKY20 Probe5 (dsDNA)
DNA 1: TTTTTAATTTGTTAACTCGTTGACTCAGTGGTAAACTCGAAAGTC
DNA 2: GACTTTCGAGTTTACCACTGAGTCAACGAGTTAACAAATTAAAAA

Target: T1, His-E1
Experiment: EMSA

Binding result, binds:
B1
B2
B3
B4
B5
